Laboratory results: publication PMC10054347

Columns and labels:
Cytochrome c = Cytochrome c (equine (heart), UniProt P00004 2-105); assay: bead-based affinity chromatography, fluorescence; PBS pH 7.4, room temperature, 1 h; EMSA 500 nM oligo + 200 µM protein, 5% agarose; bead assay with bead-immobilized protein, Alexa488 oligo 1-60 nM (lysozyme) o
Lysozyme C = Lysozyme C (Gallus gallus (Chicken), UniProt P00698 19-147); assay: as above
Chymotrypsin (CTRC) = Chymotrypsin (CTRC) (bovine (pancreas), UniProt P00766 1-245); assay: as above
Chymotrypsin = Chymotrypsin (Bos taurus (Bovine), UniProt P00766;P00766;P00766 1-13;16-146;149-245); assay: pulldown; PBS pH 7.4, room temperature
BSA = BSA (Bos taurus (Bovine), UniProt P02769 25-607); assay: EMSA; PBS pH 7.4, room temperature
Chain of BSA (P02769 25-607): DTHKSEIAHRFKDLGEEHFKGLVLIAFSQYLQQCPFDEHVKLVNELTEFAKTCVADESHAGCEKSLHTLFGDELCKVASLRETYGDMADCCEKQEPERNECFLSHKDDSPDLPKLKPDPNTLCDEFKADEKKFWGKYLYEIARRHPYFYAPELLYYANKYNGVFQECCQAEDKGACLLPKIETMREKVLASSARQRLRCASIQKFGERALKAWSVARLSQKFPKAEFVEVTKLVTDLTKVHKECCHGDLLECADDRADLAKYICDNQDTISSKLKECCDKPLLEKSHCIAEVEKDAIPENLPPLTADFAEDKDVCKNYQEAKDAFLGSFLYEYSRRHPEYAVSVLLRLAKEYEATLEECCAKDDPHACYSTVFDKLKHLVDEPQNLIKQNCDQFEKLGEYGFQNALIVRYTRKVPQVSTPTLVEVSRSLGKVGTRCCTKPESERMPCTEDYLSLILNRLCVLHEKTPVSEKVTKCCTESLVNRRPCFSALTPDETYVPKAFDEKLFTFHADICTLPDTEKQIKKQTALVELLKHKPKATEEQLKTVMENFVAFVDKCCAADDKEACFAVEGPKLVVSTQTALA

Chain of Cytochrome c (P00004 2-105): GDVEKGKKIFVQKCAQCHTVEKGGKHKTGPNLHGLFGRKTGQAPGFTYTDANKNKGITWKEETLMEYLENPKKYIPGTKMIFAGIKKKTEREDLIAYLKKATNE
Chain of Lysozyme C (P00698 19-147): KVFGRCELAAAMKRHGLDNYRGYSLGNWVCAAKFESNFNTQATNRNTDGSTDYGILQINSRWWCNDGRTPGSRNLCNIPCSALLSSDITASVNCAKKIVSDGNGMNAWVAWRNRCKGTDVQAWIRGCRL

Question: What does the source list for ATAAATTTAAGACATGAAAAAATAAATTTTTATTTTTTTACGTTTTTATT (ssDNA) [oligonucleotide 1, Alexa488]?
Answer: Kd (Cytochrome c): 1400 nM; Kd (Lysozyme C): 14 nM; Kd (Chymotrypsin (CTRC)): 1400 nM

Question: What does the source list for ATAAATTTAAGACATGAAAAAATAAATTTTTATTTTTTTACGTTTTTATT (ssDNA)?
Answer: Kd (Chymotrypsin): 1400 nM; binding result (BSA): no binding

B1: oligonucleotide 2, Alexa488 (ssDNA)
DNA: CGGTCCTCAGATGTGATTCCATCCTTCTTTTGAGCAAACTACCTGTATAACGTAAGTCCGTGTGTGCGAA
Question: Which results are given for B1?
Answer: Kd (Cytochrome c): 1100 nM; Kd (Lysozyme C): 8 nM; Kd (Chymotrypsin (CTRC)): 3300 nM

B2:  (ssDNA)
DNA: B1 DNA
Question: With B2 as the binder, how does the Kd (Chymotrypsin) read?
Answer: 3300 nM

Question: Does B2 bind (BSA)?
Answer: no binding
